Experimental data published in EP4567818A1 (Nanjing GenScript Biotech Co., Ltd., dated 2025).

What was measured:
[1] = target: T1, TNFRSF9 protein (also referred to as CD137 protein) (Homo sapiens (Human), UniProt Q07011 24-186); assay: indirect ELISA, purified antibody on coated recombinant TNFRSF9 (0.5 ug/ml)
T1 construct: also called recombinant TNFRSF9 protein

[2] = target: T1, TNFRSF9 protein (also referred to as …); assay: ELISA on coated TNFRSF9, CHO-S expression supernatant diluted 100-fold

- EC50 [1]: 3.8 ng/mL
- OD450 (100-fold dilution) [2]: 3.33 OD450
B1: rabbit monoclonal antibody 4C2-WTH before humanization (antibody, human IgG1, V domains shown)
VH: QSVEESGGRLVTPGTPLTLTCTVSGFSLGTFPIGWVRQAPGSGLEWIGIFNTDGSAAYASWARGRFTVFKNSTTVDLKMTSPTTEDTATYFCARINADYSGWYFGIWGPGTLVTVSS
VL: EMTQTPASVEVAVGGTVTIKCQASQSIYSYLAWYQQKPGQPPKPLIYEASKTPSGVPSRFKGSGSGTEYTLTISGVQCEDAATYYCQKGYSVSNVAFGGGTEVVVKR
notes: As tested it is a chimera: the original rabbit variable regions with the human IgG1 constant region, expressed from pcDNA3.4 in CHO-S cells; also called wild-type antibody; anti-CD137 rabbit antibody
